Reference: US20150147342A1
One block for each substance: values may come before it.

Columns and labels:
[1] = target: Full-length wild-type human Ang-1 (hAng-1-WT) (human) (UniProt Q15389); experiment: SPR, peptibody captured on anti-human IgG, 25 C
[2] = target: wild-type human Ang-2 (hAng-2-WT) (human) (UniProt O15123); experiment: SPR, peptibody captured on anti-human IgG, 25 C
[3] = target: Full-length wild-type human Ang-1 (hAng-1-WT) (human) (UniProt Q15389); experiment: SPR, peptibody captured on anti-human IgG, 25 C; remark: listed apart in the source
[4] = target: wild-type human Ang-2 (hAng-2-WT) (human) (UniProt O15123); experiment: SPR, peptibody captured on anti-human IgG, 25 C; remark: listed apart in the source
[5] = target: Full-length wild-type human Ang-1 (hAng-1-WT) (human) (UniProt Q15389); experiment: SPR, peptibody captured on anti-human IgG, 37 C
[6] = target: wild-type human Ang-2 (hAng-2-WT) (human) (UniProt O15123); experiment: SPR, peptibody captured on anti-human IgG, 37 C
[7] = target: Full-length wild-type human Ang-1 (hAng-1-WT) (human) (UniProt Q15389); experiment: cell-based or functional assay
[8] = target: wild-type human Ang-2 (hAng-2-WT) (human) (UniProt O15123); experiment: SPR, peptibody captured
[9] = target: Monomeric fibrinogen-like domain of human Ang2 (hAng-2FD) (human) (UniProt O15123); experiment: SPR, peptibody captured
Sequence of Monomeric fibrinogen-like domain of human Ang2 (hAng-2FD) (human) (O15123 282-496 limits assumed): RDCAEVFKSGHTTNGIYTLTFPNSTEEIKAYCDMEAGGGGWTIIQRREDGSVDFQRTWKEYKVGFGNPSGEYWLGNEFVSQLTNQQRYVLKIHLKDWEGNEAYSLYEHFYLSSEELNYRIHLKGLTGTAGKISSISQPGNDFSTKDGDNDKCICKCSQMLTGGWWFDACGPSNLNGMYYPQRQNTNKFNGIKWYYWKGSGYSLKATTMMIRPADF

[10] = target: Monomeric fibrinogen-like domain of human Ang2 (hAng-2FD) (human) (UniProt O15123); experiment: SPR, peptibody captured on anti-human IgG, 25 C, steady-state
[11] = target: Dimeric Human Ang-2FD-mFc (human) (UniProt O15123); experiment: SPR, antibody captured on anti-human kappa, 25 C
Sequence of Dimeric Human Ang-2FD-mFc (human) (O15123 282-496 limits assumed): as above

[12] = target: Dimeric fibrinogen-like domain of mouse (Mus musculus) Ang-2 conjugated to human IgG1 (mouse (Mus musculus)); experiment: SPR, antibody captured on anti-human kappa, 25 C
Sequence of Dimeric fibrinogen-like domain of mouse (Mus musculus) Ang-2 conjugated to human IgG1 (mouse (Mus musculus)) (chain, as listed by the source limits assumed): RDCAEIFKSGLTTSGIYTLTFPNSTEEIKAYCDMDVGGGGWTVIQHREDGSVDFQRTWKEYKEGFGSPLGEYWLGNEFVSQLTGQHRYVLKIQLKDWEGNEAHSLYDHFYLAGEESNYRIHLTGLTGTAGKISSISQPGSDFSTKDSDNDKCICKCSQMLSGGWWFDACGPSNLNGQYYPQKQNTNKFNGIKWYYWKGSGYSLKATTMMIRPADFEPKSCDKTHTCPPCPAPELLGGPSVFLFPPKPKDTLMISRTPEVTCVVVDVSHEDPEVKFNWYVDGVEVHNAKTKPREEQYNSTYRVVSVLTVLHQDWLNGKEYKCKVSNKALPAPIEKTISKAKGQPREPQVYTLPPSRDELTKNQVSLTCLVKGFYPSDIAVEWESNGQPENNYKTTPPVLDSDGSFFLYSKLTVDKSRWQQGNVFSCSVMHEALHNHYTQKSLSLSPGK

[13] = target: Dimeric fibrinogen-like domain of monkey (Macca fascicularis) Ang-2 conjugated to human IgG1 (monkey (Macca fascicularis)); experiment: SPR, antibody captured on anti-human kappa, 25 C
Sequence of Dimeric fibrinogen-like domain of monkey (Macca fascicularis) Ang-2 conjugated to human IgG1 (monkey (Macca fascicularis)) (chain, as listed by the source limits assumed): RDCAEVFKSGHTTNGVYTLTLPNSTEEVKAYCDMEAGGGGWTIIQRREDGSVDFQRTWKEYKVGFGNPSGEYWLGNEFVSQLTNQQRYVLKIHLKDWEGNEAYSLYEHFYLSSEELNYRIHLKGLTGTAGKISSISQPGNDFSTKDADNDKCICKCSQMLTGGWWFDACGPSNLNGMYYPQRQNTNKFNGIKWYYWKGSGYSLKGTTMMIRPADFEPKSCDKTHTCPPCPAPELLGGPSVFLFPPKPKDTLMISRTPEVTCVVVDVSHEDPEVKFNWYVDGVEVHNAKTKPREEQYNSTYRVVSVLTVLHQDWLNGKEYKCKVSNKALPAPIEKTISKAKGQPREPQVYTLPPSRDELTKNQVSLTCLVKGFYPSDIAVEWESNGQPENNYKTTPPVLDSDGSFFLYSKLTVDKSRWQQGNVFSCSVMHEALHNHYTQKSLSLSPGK

[14] = target: Full-length wild-type human Ang-1 (hAng-1-WT) (human) (UniProt Q15389); experiment: SPR, antibody captured on anti-human IgG, 25 C
[15] = target: wild-type human Ang-2 (hAng-2-WT) (human) (UniProt O15123); experiment: SPR, antibody captured on anti-human IgG, 25 C
[16] = target: Monomeric fibrinogen-like domain of human Ang2 (hAng-2FD) (human) (UniProt O15123); experiment: SPR, antibody captured on anti-human IgG, 25 C
[17] = target: Dimeric Human Ang-2FD-mFc (human) (UniProt O15123); experiment: SPR, antibody captured on anti-human kappa, 37 C
[18] = target: Dimeric fibrinogen-like domain of mouse (Mus musculus) Ang-2 conjugated to human IgG1 (mouse (Mus musculus)); experiment: SPR, antibody captured on anti-human kappa, 37 C
[19] = target: Dimeric fibrinogen-like domain of monkey (Macca fascicularis) Ang-2 conjugated to human IgG1 (monkey (Macca fascicularis)); experiment: SPR, antibody captured on anti-human kappa, 37 C
[20] = target: Monomeric fibrinogen-like domain of human Ang2 (hAng-2FD) (human) (UniProt O15123); experiment: SPR, antibody captured on anti-human IgG, 37 C, steady-state
hAng-1-WT (human) [21] = target: hAng-1-WT (human) (UniProt Q15389); experiment: SPR, 1 uM blocker + 10 nM hAng-1-WT over hTie-2-mFc surface (competitor), 25 C; RU of Ang-1 bound to Tie-2
Sequence of hAng-1-WT (human) (Q15389 20-498 limits assumed): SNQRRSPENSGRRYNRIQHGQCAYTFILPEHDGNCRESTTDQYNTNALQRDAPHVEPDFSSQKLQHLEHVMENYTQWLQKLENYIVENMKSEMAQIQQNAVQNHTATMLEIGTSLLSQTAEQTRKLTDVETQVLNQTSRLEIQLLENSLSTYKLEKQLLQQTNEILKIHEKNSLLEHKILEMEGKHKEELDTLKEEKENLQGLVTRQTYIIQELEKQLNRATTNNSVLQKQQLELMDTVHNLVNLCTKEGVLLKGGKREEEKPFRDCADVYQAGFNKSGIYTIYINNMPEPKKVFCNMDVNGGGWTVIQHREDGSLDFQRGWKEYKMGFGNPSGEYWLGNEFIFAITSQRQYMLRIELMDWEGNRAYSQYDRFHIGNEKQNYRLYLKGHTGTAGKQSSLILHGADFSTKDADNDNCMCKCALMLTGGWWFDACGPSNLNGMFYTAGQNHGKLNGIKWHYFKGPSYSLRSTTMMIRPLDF

hAng-1-WT (human) [22] = target: hAng-1-WT (human) (UniProt Q15389); experiment: SPR, 1 uM blocker + 10 nM hAng-1-WT over hTie-2-mFc surface (competitor), 25 C

Sequence of Full-length wild-type human Ang-1 (hAng-1-WT) (human) (Q15389 20-498 limits assumed): as above
Sequence of wild-type human Ang-2 (hAng-2-WT) (human) (O15123 19-496 limits assumed): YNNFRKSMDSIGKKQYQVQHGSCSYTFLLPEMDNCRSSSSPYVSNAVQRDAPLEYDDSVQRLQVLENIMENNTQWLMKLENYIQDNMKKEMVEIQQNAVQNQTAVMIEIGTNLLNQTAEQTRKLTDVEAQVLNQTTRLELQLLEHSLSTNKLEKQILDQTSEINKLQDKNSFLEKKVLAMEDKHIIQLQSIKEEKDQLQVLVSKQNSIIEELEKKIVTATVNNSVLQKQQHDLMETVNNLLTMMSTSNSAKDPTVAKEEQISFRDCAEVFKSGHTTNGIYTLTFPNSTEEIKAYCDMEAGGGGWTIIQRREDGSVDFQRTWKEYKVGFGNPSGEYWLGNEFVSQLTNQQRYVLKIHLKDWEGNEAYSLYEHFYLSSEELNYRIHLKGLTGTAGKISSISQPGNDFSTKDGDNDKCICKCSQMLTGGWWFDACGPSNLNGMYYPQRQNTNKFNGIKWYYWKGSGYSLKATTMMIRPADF

- Kd [1]: 0.0782 nM
- T1/2 [1]: 5.43 h
- koff [1]: 3.54e-05 s⁻¹
- kon [1]: 453000 M⁻¹ s⁻¹
- Kd [2]: 0.0447 nM
- T1/2 [2]: 5.58 h
- koff [2]: 3.45e-05 s⁻¹
- kon [2]: 773000 M⁻¹ s⁻¹
- Kd [3]: 0.0826 nM
- T1/2 [3]: 7.67 h
- koff [3]: 2.51e-05 s⁻¹
- kon [3]: 304000 M⁻¹ s⁻¹
- Kd [4]: 0.652 nM
- T1/2 [4]: 3.55 h
- koff [4]: 5.41e-05 s⁻¹
- kon [4]: 83000 M⁻¹ s⁻¹
- Kd [5]: 0.155 nM
- T1/2 [5]: 4.43 h
- koff [5]: 4.35e-05 s⁻¹
- kon [5]: 281000 M⁻¹ s⁻¹
- Kd [6]: 3.09 nM
- T1/2 [6]: 1.65 h
- koff [6]: 0.000117 s⁻¹
- kon [6]: 37900 M⁻¹ s⁻¹
- inhibition of Ang-1-induced Tie-2 phosphorylation in EA.hy926 cells (Western blot) [7]: 50 nM
- Kd [8]: 0.0447 nM
- T1/2 [8]: 5.58 h
- Kd [9]: 90 nM
- Kd [10]: 90 nM
Substance: Control II: peptibody that binds human Ang-2 having the amino acid sequence of 2XCon4(C) (Fc fusion)

- Kd [11]: 0.0127 nM
- T1/2 [11]: 4.48 h
- Kd [12]: 0.0402 nM
- T1/2 [12]: 4.82 h
- Kd [13]: 0.0155 nM
- T1/2 [13]: 5.7 h
- Kd [14]: 0.168 nM
- T1/2 [14]: 1.75 h
- koff [14]: 0.000111 s⁻¹
- kon [14]: 660000 M⁻¹ s⁻¹
- Kd [15]: 0.0722 nM
- T1/2 [15]: 0.7 h
- koff [15]: 0.000274 s⁻¹
- kon [15]: 3.8e+06 M⁻¹ s⁻¹
- Kd [16]: 125 nM
- T1/2 [16]: 19 s
- koff [16]: 0.0356 s⁻¹
- kon [16]: 284000 M⁻¹ s⁻¹
- Kd [17]: 0.00991 nM
- T1/2 [17]: 3.07 h
- Kd [18]: 0.054 nM
- T1/2 [18]: 1.98 h
- Kd [19]: 0.0474 nM
- T1/2 [19]: 1.78 h
- inhibition of Ang-1-induced Tie-2 phosphorylation in EA.hy926 cells (Western blot) [7]: 100 nM
- Kd [20]: 94 nM
Substance: Control IV: human anti-Ang-2 antibody with the variable regions of 3.19.3

- RU (average) (hAng-1-WT (human) [21]): 169 RU
- Percent of Negative Control Binding (hAng-1-WT (human) [22]): 100%
Substance: Negative Control (irrelevant peptibody) (Fc fusion)
